Measurements as given in the DeepSol protein solubility set.

assay: soluble on expression in E. coli; label from the status in PepcDB or PDB records

Row | Sequence | soluble on expression in E. coli
1 | MGSDKIHHHHHHMVEKLASSEVANRLNEWYDTIKQQDVERASKLRNEVQEAINQMEEDQNVLQYFNLIDSRFRQVIEEFDKSKTILKSIKNQTERSETDQLLRYYYFFFNGLYEFYKRNYIQAIHYYRQAENFLISIPDEIEHAEFHIQLANAYYGIEQNFFSLSHAKKALNIYLNHENYVNRLITTQLTIAANELDLKQYGSAETLYKKAIKTASEHNHAFMEVLGYFNLGICYELQDKLEFARDCFEAALDISYPQENKRDSYLRIKYMLARTLFKMELVDEAMDWFEDAQTLVDATNEETYQAKLKIIYSIYKTYDETSIDNGLEVLREKKLWHDVSDLTTNAARHFKKKEMFKLATKYFSEALLAKEKIPMLHKEVESE | not soluble
2 | MGSDKIHHHHHHMNQKTRLTLILDELKTHPSLSLKDIMQLTGTSRDTARRDIVKLAAHNLAERNYGGISRPNTFNKLDQYLDRDDDLLQTKRALAHTASSYLLNDALLFLDISTTVACLPQYLQSKHPGMIVTNSLDIADQALRHSNFQTRILGGTLDAQQRCVQGADSILALHKFRFTTTVLSCAGLTADGVYYAYESDIALKETLRAQSDRLVLLFDHTKVNVSHNFNLLALSDFDYFVTDQPLPDNLATKIAPDKLIYL | not soluble
3 | MTPVQIAAVVVTYESSSTIDACLSRLRAAEGISEIRVVDNASSDDTLEVVQRHALADARLHFIANPDNPGFATACNQGARDSQAPWLVFINPDLMIARDTLLQLYHRAAGHPAVLLGVEQVDEQGRPDAAVRRRDPDFAAMLRAPRAAANLAVPADPSRALQPVDAISGALMLMQRSLFDRLDGWDGSYRLHAEDLDLCRRARQAGALVAVANDLHVLHVRGVSSRARPFFVEWHKHRGLWRYFRKFEADRRGLLTRLGVWLAIWSHAAAQVPRLLQNKLEHHHHHH | not soluble
4 | MGSDKIHHHHHHMTFSAKNAAGETTGGVFTVALDRCAVYGRASSGAVCGSLLESAGWRPAAGSRVLVKPNLLRAQPDGLCCTHPQVVRAAVEYALDCGAVVTVGDSPAFGSAERVAQAVGLTDALQGLGVRVVTLDDPVDCRLPSGLRVGVARAALEADALLNVPRVKVHCQMRLTLAVKNLFGCVCGVRKAVAHTRHGDRGNRFEALIVELAERLPPSGVLLDGITAMHRTGPSGGDPYLLGLLGASCSSVAMDTAVGTLLGAAPETIPLWAELRRRKQPAAFVENLHFPVLFPADFSPQGVTPDGFCIPQVLKPVSFRPATLLRSLVRRMWHRYGPSA | not soluble
5 | MKLAAKTFTPSTADLPFTDAGASEDSGMANKPGEPAFQLWLDVKKVVFPTTSEPSYVNLRLHNPTDKRITFKVRCTSAELFRVQPPIAFINAGATVNLVMWSANTHLQPEKKHYFAFYHKNASPSARQSPPLWKDGLKDAEGVRRIPVVFLPPSS | not soluble
6 | MGSDKIHHHHHHMYLVEVFFTYRQPQKLPISNISYLINQIIEQWRYNGQIIGREIPLFVAVQNNEEGFALRVTCPEQQSLLPTFNNIQVDKALKQAKSAGIFFDSFQIIADDLNSDITYSKEVATWQVLYTTYLQSCSPLHSGDNLLPIPLYKQFKNIPHLSMDIIKWQENWQACDQLQMNGSILEQQALYEISDFNSHLTKHGYYLTQEIEKHTGIPTFYYLYRIGGDDLQSEQQRLCPNCQQKWHLDKPLFNLFHFKCDHCRLVSNLSWHWQ | not soluble
7 | MAHHHHHHMATTSSPAASETAVRTVWFDAIDATAAMISTDPLQPAAEYTADSYLPPLSLAGDQADFFAQLRELDRGFIEAAPSLFLPQMTLEEACHAKPSFYQTFLGEREITETTFQPLLLKQRDEAEQEADGSAMNGRHGARRRRQEAPVLPRGTAPLYGGFLGQEAMSPSTAVQRKPDFMPIILVPSAATAPLQLMNIKQFLEHGAYVDPATLYVDRETGVVNIRDSKPRSVIVKPGSFHDPHKYHVAFRQFRVVDDQDEVDDWSHVCGCIVEGKLWQLKGWYPHEQPQSRDPSRLFSRIRAFLAYFEEDKVPPQCREWNVQSLALTRNLLKDQVHIALASKFWEQLYTFLDEHPMFSRYTIPLTDERL | soluble
8 | MGSDKIHHHHHHMKGKHKVIVSTKRLKYEFELRRNLTIIQGDSATGKTTLVDMIRDFVNNPTGTPVEVICDKKCHVVEGSLWKEQLSGISDCIVFIDEGNEFITTVDFADKIQKTDNYYVIVTREALPALPYSVEEIYGIRTSGRYGTLKQSYHEFYRIYGTDTYEDKVSPEIIITEDSNSGYQFFEHVCIENGLKCESMNGKSNVFHYLNKHKGEKILVIADGAAFGSEIDRVLQVIHGRKNVALYLPESFEWMIMDADILKNNTVRSILSNPSEYVESKLYFSWERFFTAILIEQTKDTYLAYAKRKLNPAYLSGAIKESILRKMNIIDLNKKDE | not soluble
9 | MGTGSGGPIGVSPFHSRGALKGFVISGRWPDSTKEWAQLLMVAVRVASLPGLLSTTTVFGAREELPDEPEPGTVGLVLAEGTVFGESAIQPGYFADHQPPALLMLHPPSETTPSLPECTGAASGCVLLPGLPYLGLEHRAAWVEAEADGTITSMVSRVGVDPISHPDTAILAMLLAA | soluble
10 | MSLDTTPEHLVGTDAETIDLSFAAPAAPVEILHAAFATALEQLPRHFERHGYDRYGTAELREAVARWYQRRGLPTRPDHILITNGAQHALALLTRVLLSPRDKVLIDHPTYPHAITTFTQARARLLPVAVTSSGWDTEQLQAAGQAANLAYLIPDFHNPTGMCMPTSVRQQLRLACPTVVDETMTDLALDVPSPEPLALHMPTAISIGSVSKSVWGGLRTGWIRALPSLLERVEQARPTTDLGTPVVEQLATAVLLNEHQTQRPDTLQQLRSQRDALWQALTEHLPNVHAPQPAGGVTLWAAFPGPVSSRLAAMAPDHGVTIAAGPRFGIGGAFERNIRLPYTLPSSQLAQAIRRLAQAAQALAQGATGTEGHHHHHH | not soluble
11 | LADYGRTAAVNRVEMRDTELGIVTAGVSYQYVREVFPNASVLKLGMVYPLPMDLIREFASKVTKLIVVEELDAFIEDQVKAAGISVTGKEAIPLCGELTPGRLRAAFGIPGAPQVTVENLPGRPPNMCPGCPHRGVFFTLNQLKAYVTGDIGCYTLGFMPPLNAMDTCVCMGASISSASGIVRVLSDEEKKKVVAVIGDSTFLHTGVNSLMEMAYNKAPATVVILDN | not soluble
12 | MAHHHHHHMSRCNVAACFFPQQYGCETECGSESLLRAVLGDNANRVDSVMNHCTPHCVAAAIARCIREGPNFPHHLHVIAGVGRFKEIMIACLIDMIPQPLFSIDVPLQCMMFASEEGSVVCKLFDSESMPSLLSTANDMEQIFLVSLRHERRMVTIVAVEQLSTSLVASMLGSVCSNIWVLLSGLHTTEREMSLLNEAMAIRDAVREFSSAVGAVSTELHVEEESSAHATPPVAVEVVHPSAPSLKGVEDNDTAVVVSSAEAETVSDTQSVARRLEESQCEVNQLRKKLEEAEDTIHRFRAAERRAEEEKKNLSLAESLAATTPVATSERAESLFCEGTGGLDSQNSKGNENWVGERTVVATQRELSAMQAKLSELQRCLVETSEGNLGRVREFQCRELEWQRELRRRTEERDVALQECERLRGATPCHGSQEKVFSRAVETPHAHQEQELDNLLSRIRSITAAHGNAAHSEFPMLFSSQRSAGGAGQPLSPRGDYRRFASLERYRS | not soluble
13 | MGRKISVIIPTHYRNDLLPTAIESVARQDYEPVELIVVDDSGEGYAEPVLSEYDEVIDRPIIKEENEGWQAAYTTGIEQSTGEYIQFLDDDDYLYETKLKKTANVLDQNPEVGVSYCGVVRGDEGDFYPKQEVSGHFLEPALRFQTFPMWTGSMLMEREVLCDCLPMAGMGEEDDLDIELGDTDLKIELAKRTKADYVDECLTFYRQEGNKLWTGKRRFKKILQNIRHQKDIYNQYPEIRRDLLAEWYERQGRNYLNEQIWSAQAIQCFIKSAYYERKQKFPRIIETLAAILGRPGVMSAVRVKRTLLDGLEHHHHHH | not soluble
14 | VFIDESKEHLQTCNEKLLLLEKDPTDLQLVHDIFRAAHTLKGMSATMGYTDLAHLTHLLENVLDAIRNGDMEVTSDWLDILFEALDHLETMVQSIIDGGDGKRDISEVSAKLDVNGAHAESAASAEPAEAQSSASDWEYDEFERTVIQEAEEQGFKRYEIKISLNENCMLKAVRVYMVFEKLNEVGEVAKTIPSAEVLETEDFGTDFQVCFLTHQSAEDIEQLINGVSEIEHVEVIQGAPLTSAEKPEESKQEDSPAAAVPANEEKQKQPAKNDEQAKHSAGGSKTIRVNIDRLDSLMNLFEELVIDRGRLEQIAKELEHNELTETVERMTRISGDLQSIILNMRMVPVETVFNRFPRMIRQLQKELNKKIELSIIGAETELDRTVIDEIGDPLVHLIRNSIDHGIEAPETRLQKGKPESGKVVLKAYHSGNHVFIEVEDDGAGLNRKKILEKPLERVITEKEAETLEDNQIYELIFAPGFSTADQISDISGRGVGLDVVKNKLESLGGSVSVKSAEGQGSLFSIQLPLTLSIISVLLIKLEEETFAIPISSIIETAVIDRKDILQTHDREVIDFRGHIVPVVYLKEEFKIEDTRKDAEQLHIIVVKKGDKPTAFVVDSFIGQQEVVLKSLGDYLTNVFAISGATILGDGEVALIID | not soluble
15 | MPMIIKQEQFIPKDTVETTIDLLIRNLTTIKDNTGEFLLDFDGLKVDDKSWTIWNWPQGVGLYGIYKNYRNTKSEKALQVVNDWFEGRMQEGAPPKNVNTMAPLLTMAYLYEDTKDSKYIPYLEQWAEWVMEEMPRTNEGGLQHATYGPENKNQLWDDTLMMTVLPLAKIGKLLNRLDYLEEAKHQFLIHIKYLQDKKSGLWYHGWTFEGNHNYAEALWARGNCWITIAIPEIIEILELPKGDSLREFLLSTLNAQVAALAKYQDESGLWHTLINDSNSYLESSATAGFAYGILKAVHKKYISSEYEEVANKAIAGLLNEIDETGEVQHVSVGTGMGDNLDFYRTIGMTAMPYGQSLTILCLTELLVSYC | not soluble
16 | MLELVQKGITPEDAITAGKKARKYFELTYYVMPGLGGRERSEQHAVNTARVINKAQPTFVRLRTLTVIEGTPIEKLVGKEITLLGPVEQLEEVRRLVEEIKVETLLLSDHVSNYLFTRSGPIFFGVSGKLPDEKEQMLEQVDDAIKTVKLLEESGERVFNSNDMYRMGLIGL | not soluble
17 | MGSDKIHHHHHHMLHYNALTRGCGRITLLMLGLALCQPVFAHPHSFIDMQTTVESQNDNITGLRMQWTMDPITSADLLYDAGKAKKDSEVWKKLAAEVMANVLGQHYFTDIYRDSQPVKYAPMPTEYHLSRKGNQAILEFVLPLAHPQPLAGKPLLISTYDPTYFVDMSYQNDKAVKLAPALASRCKTSLVTPKPNTELQSYALSLDKNDAPDEDMDLGKQFAQRVTLQCQ | not soluble
18 | MQREDILGEALKLLETQGIADTTLEMVAERVNRPLDTLQRFWPDKEAILYDALRYLSQQVDIWRRQLLLDETLSAEQKLLARYSALSECVSNNRYPGCLFIAACTFYPDPTHPIHQLANQQKRAAHDFTHELLTTLEIDDPAMVARQMELVLEGCLSRMLVNRSQADVDTAQRLAEDILRFAQCRQGGALT | soluble
19 | MSLAFGNYPFLTVSEITYTNPINSNIVSEDFDVEIGEATNGTVTSRVGIRVKDITRHIGIFGSTGSGKTNTAILLASQLNAKGVKVIILDWHGEYDQLLKNGFRIYDEKTIVKINPLHLIDLDVEDTVDIIGDVLQLTDPQRFLLYTILLKLKSYRKFSINQLLEVINSIEDTSYWMRDVKYALLRKIFILFTPTASKLFSTVDETSLNDFPDYLTSSTIINLGFISNLKLRKLYSLFLIKLIVESYIREGHHHHHH | soluble
20 | MQNMFDGVQLFVEVVEAGGFAKAGKRLSLTRSTIGKAIARLEMRLGVQLFQRTTRVQSLTEDGQQYYERCLRAIKELRAGEAMLEQGRREVAGRLHVSLPVLFGRQCVAPILRTYAREHPQLELELNFSDHHVDLIADGFDLAVRNGPLGNGTTLRARRLGNQRKILCASPTYLAARGKPHTLADLADHDLLTYCRNDRNMAWTLPDATGALVDIPITSRLRCNDLEVIADTAVDGMGVAWLPYWLLMERMQRGELIGIWGDRPSAVIECHVVWPAAQHVPLRSRLAINLLAAELPKYLEA | not soluble
